Measured values from patent publication US20170354706A1, “HYBRID PROTEINACEOUS MOLECULE CAPABLE OF INHIBITING AT LEAST ONE ANTIBIOTIC AND PHARMACEUTICAL COMPOSITION CONTAINING IT” (priority 2014, published 2017).
Read-outs that look alike come from different tables or passages of the source.

B1: EreB: SEQ ID 5; erythromycin esterase, P05789.1, 419 aa (protein, listed as Escherichia coli)
chain: MRFEEWVKDKHIPFKLNHPDDNYDDFKPLRKIIGDTRVVALGENSHFIKEFFLLRHTLLRFFIEDLGFTTFAFEFGFAEGQIINNWIHGQGTDDEIGRFLKHFYYPEELKTTFLWLREYNKAAKEKITFLGIDIPRNGGSYLPNMEIVHDFFRTADKEALHIIDDAFNIAKKIDYFSTSQAALNLHELTDSEKCRLTSQLARVKVRLEAMAPIHIEKYGIDKYETILHYANGMIYLDYNIQAMSGFISGGGMQGDMGAKDKYMADSVLWHLKNPQSEQKVIVVAHNAHIQKTPILYDGFLSCLPMGQRLKNAIGDDYMSLGITSYSGHTAALYPEVDTKYGFRVDNFQLQEPNEGSVEKAISGCGVTNSFVFFRNIPEDLQSIPNMIRFDSIYMKAELEKAFDGIFQIEKSSVSEVVYE
B2: TEM-36: SEQ ID 1; clavulanic acid-resistant class A β-lactamase (IR-TEM, aminopenicillinase), 263 aa; constituent enzyme (protein, listed as Escherichia coli)
chain: HPETLVKVKDAEDQLGARVGYIELDLNSGKILESFRPEERFPMVSTFKVLLCGAVLSRVDAGQEQLGRRIHYSQNDLVEYSPVTEKHLTDGMTVRELCSAAITMSDNTAANLLLTTIGGPKELTAFLHNMGDHVTRLDRWEPELNEAIPNDERDTTMPAAMATTLRKLLTGELLTLASRQQLIDWMEADKVAGPLLRSALPAGWFIADKSGAGERGSRGIIAALGPDGKPSRIVVIYTTGSQATMDERDRQIAEIGASLIKHW
B3: TEM36-GGGGGG-CTXM16: SEQ ID 8; fusion TEM36 and CTXM16 with flexible 6 glycine linker, 532 aa (protein)
chain: HPETLVKVKDAEDQLGARVGYIELDLNSGKILESFRPEERFPMVSTFKVLLCGAVLSRVDAGQEQLGRRIHYSQNDLVEYSPVTEKHLTDGMTVRELCSAAITMSDNTAANLLLTTIGGPKELTAFLHNMGDHVTRLDRWEPELNEAIPNDERDTTMPAAMATTLRKLLTGELLTLASRQQLIDWMEADKVAGPLLRSALPAGWFIADKSGAGERGSRGIIAALGPDGKPSRIVVIYTTGSQATMDERDRQIAEIGASLIKHWGGGGGGQTSAVQQKLAALEKSSGGRLGVALIDTADNTQVLYRGDERFPMCSTSKVMAAAAVLKQSETQKQLLNQPVEIKPADLVNYNPIAEKHVNGTMTLAELSAAALQYSDNTAMNKLIAQLGGPGGVTAFARAIGDETFRLDRTEPTLNTAIPGDPRDTTTPRAMAQTLRQLTLGHALGETQRAQLVTWLKGNTTGAASIRAGLPTSWTAGDKTGSGGYGTTNDIAVIWPQGRAPLVLVTYFTQPQQNAESRRDVLASAARIIAEGL
modifications: TEM36-GGGGGG-CTXM16
notes: fusion TEM36 and CTXM16 with flexible 6 glycine linker, 532 aa
B4: CTX-M16: SEQ ID 2; class A β-lactamase (cefotaximase), Genbank AAK32961, 263 aa; constituent enzyme (protein, listed as Escherichia coli)
chain: QTSAVQQKLAALEKSSGGRLGVALIDTADNTQVLYRGDERFPMCSTSKVMAAAAVLKQSETQKQLLNQPVEIKPADLVNYNPIAEKHVNGTMTLAELSAAALQYSDNTAMNKLIAQLGGPGGVTAFARAIGDETFRLDRTEPTLNTAIPGDPRDTTTPRAMAQTLRQLTLGHALGETQRAQLVTWLKGNTTGAASIRAGLPTSWTAGDKTGSGGYGTTNDIAVIWPQGRAPLVLVTYFTQPQQNAESRRDVLASAARIIAEGL

How the values were obtained:
E. coli BL21(DE3)pLysS [1] = assay: MICs of beta-lactams on LB-agar for E. coli expression strains (Example 4); assay type: cell-based, Escherichia coli; conditions: Table 10; for MIC of the antibiotic for the empty strain BL21(DE3)pLysS: no recombinant protein; for MIC of Amoxicillin for E. coli strain expressing the protein / MIC of Augmentin for E. coli strain expressing the protein / MIC of Rocephine for E. coli strain expressing the protein: BL21(DE3)pLysS + protein, IPTG induced, LB-agar, 37° C. overnight
Method: The pre-cultures are then inoculated at 1/40th in 5 ml of LB+50 μg/ml Kanamycin medium and when the OD600 reaches a value of 0.6 (about 2 hours), the production of protein is induced by the addition of final IPTG 1 mM and continues for 1.5 hours at 37° C. with stirring at 200 rpm.
The dishes were incubated at 37° C. overnight and the results were recorded the following day. The MICs correspond to the lowest concentration of antibiotic at which the highest inoculum doesn't grow.

[2] = cited from earlier work
E. coli BL21(DE3)pLysS [3] = assay: MICs of beta-lactams and macrolide on LB-agar for E. coli expression strains (Example 6); assay type: cell-based, Escherichia coli; conditions: Table 14
Method: The pre-cultures are then inoculated at 1/40th in 5 ml of LB+50 μg/ml Kanamycin medium and when the OD600 nm reaches a value of 0.6 (about 2 hours), the production of protein is induced by the addition of 1 mM final IPTG and continued for 1.5 hours at 37° C. with stirring at 200 rpm.
The dishes are incubated at 37° C. over night and the results are recorded the next day. The MICs correspond to the lowest concentration of antibiotic at which the highest inoculum no longer grows.

[4] = pH-STAT beta-lactam hydrolysis assay, substrate amoxicillin; assay type: biochemical; conditions: 37° C., pH=7.0
Method: (§1) The purified proteins were tested on different beta-lactams (amoxicillin (Apollo Scientific), Augmentin® (GlaxoSmithKline) and Ceftriaxone (Rocéphine®, Roche)). The assays are carried out at pH-STAT (Titrino 2.5, Metrohm) in a reaction volume of 25 ml at 37° C. and pH=7.0. The substrates are prepared at 4 g/l in a 0.3 mM Tris buffer, 150 mM NaCl. The enzyme hydrolysis of the beta-lactam nuclei releases an acid and induces a drop in the pH. The principle of the assay is to compensate for the acidification by the addition of 0.1 N sodium hydroxide so as to remain at pH=7.0. In these conditions, one unit corresponds to 1 μmole of sodium hydroxide added per minute, that is, one μmole of beta-lactam hydrolysed per minute. Table 3 below lists the specific activities measured for each protein on the three substrates (mean of 6 replicates).

[5] = pH-STAT beta-lactam hydrolysis assay, substrate Augmentin; assay type: biochemical; conditions: 37° C., pH=7.0
Method: as §1

[6] = pH-STAT beta-lactam hydrolysis assay, substrate ceftriaxone; assay type: biochemical; conditions: pH=7.0; for Specific activity, substrate Ceftriaxone: 37° C.
Method: as §1
The purified proteins were tested on different antibiotics: Ceftriaxone (RocéphineED, Roche) for the beta-lactams and kanamycin for the Aminoglycosides. The assays on ceftriaxone were carried out at pH-STAT (Titrino 2.5, Metrohm) in a reaction volume of 25 ml at 37° C. and pH=7.0. The substrates are prepared at 4 g/l in a 0.3 mM Tris buffer, 150 mM NaCl. The enzyme hydrolysis of the beta-lactam nuclei releases an acid and results in a drop in the pH. The principle of the assay is to compensate this acidification by the addition of 0.1 N sodium hydroxide so as to remain at pH=7.0. In these conditions, one unit corresponds to 1 μmol of sodium hydroxide added per minute, that is one μmol of beta-lactam hydrolyzed per minute.

[7] = Acetyl-transferase indirect colorimetric assay (acetyl-CoA, DTNB); assay type: biochemical; conditions: Table 12; 500 μM Kanamycin, 500 μM AcetylCoA, 250 μM DTNB; 1 unit = one nanomole of TNB released per minute at 37° C.; n=6
Method: The activity of acety-transferase is measured by an indirect colorimetric assay with acetyl-CoA (Sigma-Aldrich) as acetyl group donor, Kanamycin as acceptor and Elleman reagent (DTNB, Sigma-Aldrich) to titrate the CoEnzymeA reduced (—SH) molecules released during the enzyme reaction [Ref]. The reaction takes place on a microtitration plate with increasing quantities of purified enzymes, in a final volume of 200 μl and with concentrations of 500 μM Kanamycin, 500 μM AcetylCoA and 250 μM DTNB. In these experimental conditions, the ion TNB^2 absorbs at 412 nm with an ε(λ=412 nm) apparent 19 000 M^−1.well^−1 (well of a 96 well plate filled with 200 μl) and 1 unit corresponds to one nanomole of TNB^2 released per minute at 37° C.

[8] = BL21(DE3)pLysS + protein, IPTG induced, LB-agar, 37° C. over night
[9] = Table 3, proteins produced in Pichia pastoris, substrate 4 g/l, 1 U = 1 μmole beta-lactam hydrolysed per minute, mean of 6 replicates
[10] = Table 5 (Example 2), proteins produced in Pichia pastoris
[11] = Table 7 (Example 3), proteins produced in Pichia pastoris
[12] = Table 9, proteins produced in Escherichia coli BL21(DE3) pLysS (periplasm, non-glycosylated)
[13] = Table 3, proteins produced in Pichia pastoris, substrate 4 g/l, mean of 6 replicates
[14] = Table 9, proteins produced in Escherichia coli BL21(DE3) pLysS

Molecule | Specific activity, substrate Amoxicillin [4, 9] | Specific activity, substrate Amoxicillin [4, 10] | Specific activity, substrate Amoxicillin [4, 11] | Specific activity, substrate Amoxicillin [4, 12] | Specific activity, substrate Augmentin [5, 13] | Specific activity, substrate Augmentin [5, 10] | Specific activity, substrate Augmentin [5, 11] | Specific activity, substrate Augmentin [5, 14] | Specific activity, substrate Ceftriaxone [6, 13] | Specific activity, substrate Ceftriaxone [6, 10] | Specific activity, substrate Ceftriaxone [6, 11] | Specific activity, substrate Ceftriaxone [6, 14] | other results
CO/N=C(\C(=O)N[C@@H]1C(=O)N2C(C(=O)O)=C(CSc3nc(=O)c(O)nn3C)CS[C@H]12)c1csc(N)n1 [Rocephine, Ceftriaxone, reference compound] | – | – | – | – | – | – | – | – | – | – | – | – | MIC of the antibiotic for the empty strain BL21(DE3)pLysS (E. coli BL21(DE3)pLysS [1]): <0.5 μg/ml
CC[C@H]1OC(=O)[C@H](C)[C@@H](O[C@H]2C[C@@](C)(OC)[C@@H](O)[C@H](C)O2)[C@H](C)[C@@H](O[C@@H]2O[C@H](C)C[C@H](N(C)C)[C@H]2O)[C@](C)(O)C[C@@H](C)CN(C)[C@H](C)[C@@H](O)[C@]1(C)O [azithromycin] | – | – | – | – | – | – | – | – | – | – | – | – | Patients with acute diarrhoea induced by antibiotics ([2]; human, in vivo): 2-5%
CC1(C)S[C@@H]2[C@H](NC(=O)[C@H](N)c3ccc(O)cc3)C(=O)N2[C@H]1C(=O)O [Amoxicillin, amoxicillin, reference compound] | – | – | – | – | – | – | – | – | – | – | – | – | MIC of the antibiotic for the empty strain BL21(DE3)pLysS (E. coli BL21(DE3)pLysS [1]): <0.5 μg/ml; MIC of the antibiotic for the empty strain BL21(DE3)pLysS (E. coli BL21(DE3)pLysS [3]; empty strain, no recombinant protein): <2 μg/ml; Patients with acute diarrhoea induced by antibiotics ([2]; patients receiving antibiotic therapy): 5-10%
B1 | – | – | – | – | – | – | – | – | – | – | – | – | MIC of Amoxicillin for E. coli strain expressing the protein (E. coli BL21(DE3)pLysS [3]; [8]): <2 mg/L; MIC of Augmentin for E. coli strain expressing the protein (E. coli BL21(DE3)pLysS [3]; [8]): <2 mg/L; MIC of Erythromycin for E. coli strain expressing the protein (E. coli BL21(DE3)pLysS [3]; [8]): >1024 mg/L
B2 | 816 ± 90 U/mg | 816 ± 90 U/mg | 816 ± 90 U/mg | 3593 ± 87 U/mg | 97 ± 74 U/mg | 97 ± 74 U/mg | 97 ± 74 U/mg | 385 ± 31 U/mg | 0 U/mg | 0 U/mg | 0 U/mg | 1 ± 1 U/mg | MIC of Amoxicillin for E. coli strain expressing the protein (E. coli BL21(DE3)pLysS [1]): >1024 mg/L; MIC of Augmentin for E. coli strain expressing the protein (E. coli BL21(DE3)pLysS [1]): 512 mg/L; MIC of Rocephine for E. coli strain expressing the protein (E. coli BL21(DE3)pLysS [1]): <0.5 mg/L; MIC of Amoxicillin for E. coli strain expressing the protein (E. coli BL21(DE3)pLysS [3]; [8]): >2048 mg/L; MIC of Augmentin for E. coli strain expressing the protein (E. coli BL21(DE3)pLysS [3]; [8]): 512 mg/L
B3 | 695 ± 98 U/mg | 890 ± 83 U/mg | 890 ± 176 U/mg | 633 ± 99 U/mg | 42 ± 33 U/mg | 42 ± 14 U/mg | 34 ± 6 U/mg | 24 ± 5 U/mg | 114 ± 44 U/mg | 123 ± 35 U/mg | 141 ± 55 U/mg | 138 ± 32 U/mg | –
B4 | 31 ± 2 U/mg | 31 ± 2 U/mg | 31 ± 2 U/mg | 21 ± 1 U/mg | 0 U/mg | 0 U/mg | 0 U/mg | 0 U/mg | 306 ± 44 U/mg | 306 ± 44 U/mg | 306 ± 44 U/mg | 158 ± 14 U/mg | Specific activity, substrate Cetriaxone ([6]; Table 12, pH-STAT 37° C., AAC and fusion from E. coli, CTX-M16 from P. pastoris, n=6): 336 ± 5 U/mg; Specific activity, substrate Kanamycin [7]: 0 U/mg; MIC of Amoxicillin for E. coli strain expressing the protein (E. coli BL21(DE3)pLysS [1]): >1024 mg/L; MIC of Augmentin for E. coli strain expressing the protein (E. coli BL21(DE3)pLysS [1]): 4 mg/L; MIC of Rocephine for E. coli strain expressing the protein (E. coli BL21(DE3)pLysS [1]): 512 mg/L
